The assay deals with T1, ubiquitinated SFB-tagged PCNA purified from HEK293T cells (human | , UniProt P12004 1-261; P0CG48 1-76, ubiquitinated with His-tagged ubiquitin; the paper places Rad18-mediated monoubiquitination at lysine 164).
T1 construct: PCNA, human, full-length cDNA; wild-type ubiquitin (Ub), conjugated to PCNA; the transfected plasmid is probably the N-terminal one; also called ubiquitinated SFB-PCNA; monoubiquitinated PCNA; source: HEK293T stably expressing His-tagged Ub, transfected with SFB-PCNA, treated with HU and ATRi; purified (cobalt resin under denaturing conditions, then streptavidin beads, biotin elution)
Description: pull-down; GST-UBZ4 on glutathione-Sepharose resin incubated with ubiquitinated SFB-tagged PCNA purified from HEK293T cells; NETN buffer, 4 °C, 1 h. The settings on record: both partners purified.

B1: GST-SLX4-UBZ4-WT (domain or fragment, human, UniProt Q8IY92 292-361, looked up)
chain: GLFFCQICQKNLSAMNVTRREQHVNRCLDEAEKTLRPSVPQIPECPICGKPFLTLKSRTSHLKQCAVKME
notes: SLX4, human, fragment with the tandem UBZ4 domains, amino acids 292–361; also called GST-UBZ4; source: E. coli, purified (glutathione-Sepharose, used on beads)
B1: the binding result is “binds”.

For the origin of these results see article PMC10987609, “ATR limits Rad18-mediated PCNA monoubiquitination to preserve replication fork and telomerase-independent telomere stability” (The EMBO Journal, 2024).
